Measured values reported in patent US20150374663A1 (UNIVERSITY OF ROCHESTER, published 2015).
Ends that are not written are not given here.

What was measured:
[1] = target: T1, type V tartrate-resistant acid phosphatase (TRAP) protein, immobilised on CM5 sensor chip; assay: SPR, TRAP-functionalized surface, binding curve fit
Protocol: Quantitative analyses of peptide and polymer affinities were performed using SPR. […] The binding of any molecules to the surface of the sensor chips results in a change in the angle of incident light reflection, allowing highly-sensitive detection of miniscule amounts of ligand binding to the surface. Target affinity can be determined by introduction of increasing concentrations of the molecule to the surface (FIG. 38A and FIG. 38B). […] The binding response is measured and plotted against concentration, allowing for a fitting of the data by a binding curve. From this fitting, values such as the dissociation constant (KD) value can be determined. Through this technique, the affinity of peptides and peptide-functionalized polymers were analyzed.

[2] = target: T1, type V tartrate-resistant acid …; assay: SPR, TRAP-functionalized surface, binding curve fit (n = 2, Ave. ± StDev)
[3] = target: T1, type V tartrate-resistant acid …; assay: SPR, TRAP amine-coupled to CM5 chip, steady-state response vs concentration fit
Protocol: Surface plasmon resonance (SPR) is used to assess the affinity of peptides for TRAP. Series S Sensor CM5 Chips are functionalized with TRAP via 1-ethyl-3-(3-dimethylaminopropyl) carbodiimide (EDC)/N-hydroxysuccinimide (NHS) chemistry. Briefly, the chips, which have a carboxymethylated dextran functionality, are activated through the introduction of NHS and EDC. After activation, TRAP protein, at 30 μg/mL in sodium acetate (pH=5), is introduced to the surface. Ethanolamine-hydrochloric acid is used to quench unreacted carboxysuccinimide groups. Peptides are dissolved in running buffer of PBS with 0.005% Tween20. Peptides are analyzed in duplicate at different concentrations. Surface regeneration is achieved using a combination of 1 and 2 M NaCl and 1-50 mM NaOH solutions as necessary.
Target affinity can be determined by introducing increasing concentrations of the ligand to the surface. […] The binding response was measured and plotted against concentration (FIG. 4), allowing for a fitting of the data by a binding curve. From this fitting, values such as KD can be determined.

[4] = target: T1, type V tartrate-resistant acid …; assay: SPR, TRAP amine-coupled to CM5 chip, initial rate analysis of sensorgrams
Protocol: Surface plasmon resonance (SPR) is used to assess the affinity of peptide-functionalized polymers for TRAP. Series S Sensor CM5 Chips are functionalized with TRAP via 1-ethyl-3-(3-dimethylaminopropyl) carbodiimide (EDC)/N-hydroxysuccinimide (NHS) chemistry. Briefly, the chips, which have a carboxymethylated dextran functionality, are activated through the introduction of NHS and EDC. After activation, TRAP protein, at 30 μg/mL in sodium acetate (pH=5), is introduced to the surface. Ethanolamine-hydrochloric acid is used to quench unreacted carboxysuccinimide groups. Polymers are dissolved in running buffer of PBS with 0.005% Tween20. Polymers are analyzed in duplicate at different concentrations. Surface regeneration is achieved using 1-10 mM NaOH solutions as necessary. […] Sensorgram data (FIG. 22) are exported from the SPR evaluation software after smoothing data of injection events and analyzed. Response units (RU) are converted into concentrations for rate analysis using the equation:
Where S is the concentration of polymer bound to the TRAP-functionalized surface and MW is the molecular weight of the polymer. The binding rates of polymers to TRAP are determined in the initial linear portion of association, within two seconds of the start of injection. […]

[5] = target: T2, TRAP deposited by osteoclasts on human cortical bone wafers (human, UniProt P13686 22-325, limits assumed); assay: confocal imaging of fluorescently labeled peptide incubated overnight on human cortical bone wafers
T2 construct: The protein is native TRAP deposited on bone, not purified; also called bone wafers decorated with TRAP; resorption pits
T2 sequence (looked up): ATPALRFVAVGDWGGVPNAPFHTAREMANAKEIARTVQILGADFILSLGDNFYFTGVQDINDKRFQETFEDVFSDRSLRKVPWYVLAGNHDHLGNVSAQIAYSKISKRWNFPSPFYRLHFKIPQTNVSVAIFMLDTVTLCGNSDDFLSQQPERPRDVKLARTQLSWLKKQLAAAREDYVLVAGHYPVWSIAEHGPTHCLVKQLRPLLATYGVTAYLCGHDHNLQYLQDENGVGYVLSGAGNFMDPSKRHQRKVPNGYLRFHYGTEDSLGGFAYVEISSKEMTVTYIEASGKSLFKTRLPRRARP
Protocol: Equal concentrations of fluorescently labeled TBP and SCP are prepared in 1× phosphate-buffered saline (PBS). Bone wafers are cut from cortical bone obtained from the femur of a human donor cadaver and incubated in peptide solutions overnight, washed twice with 1×PBS, and then visualized via confocal imaging. Stacked sections are compressed into 2D images to allow for qualitative analysis as in FIG. 3A through FIG. 3D.

B1: TRAP-binding peptide (TBP), TPLSYLKGLVTVG (peptide)
peptide: TPLSYLKGLVTVG-OH
modifications: also: fluorescent cadaverine label in bone wafer experiment, position not given here
notes: also called TRAP peptide
Kd [1]: ~700 µM | Kd [2]: 795 µM | Kd [3]: ~200 µM

B2: 10% TBP-functionalized PEG polymer (pTBP) of Table 4, M:CTA:I 300:1:0.1, Mn 40.1 kDa (other)
peptide: TPLSYLKGLVTVG-OH
modifications: not fully specified (N-terminus); also: copolymerized by RAFT with PEG methyl ether methacrylate (300 Da), ~9 peptides per chain, fluorescently labelled for bone-targeting studies, position not given here
notes: Random copolymer; Footnote e says it was used for the in vitro and in vivo bone-targeting studies, where it was fluorescently labeled; also called 10% TBP-functionalized polymer
Kd [4]: 60 µM

B3: scrambled control peptide (SCP), VPVGTLSYLKLTG (peptide)
peptide: VPVGTLSYLKLTG-OH
modifications: not fully specified; also: fluorescent cadaverine label in bone wafer experiment, position not given here
notes: In the bone wafer experiment it carried a fluorescent cadaverine label; also called scrambled peptide
binding result [5]: no binding
